Source: the supplement of paper PMC7877785
± gives the uncertainty stated by the source.

Assay: self-splicing fitness, log relative to wild type (ln ratio); higher = more splicing; Tetrahymena group I intron in knt gene, E. coli kanamycin selection, DiMSum; sequences stand for … in CUCUCU…GGAGGGAAAAGUUAUCAGGCAUGCACCUGGUAGCUAGUCUUUAAACCAAUAGAUUGCAUCGGUUUAAAAGGCAAGACCGUCAAAUUGCGGGAAAGGGGUCAACAGCCGUUCAGUACCAAGUCUCAGGGGAAACUUUGAGAUGGCCUUGCAAAGGGUAUGGUAAUAAGCUGACGGACAUGGUCCUAACCACGCAGCCAAGUCCUAAGUCAACAGAUCUUCUGUUGAUAUGGAUGCAGUUCACAGACUAAAUGUCGGUCGGGGAAGAUGUAUUCUUCUCAUAAGAUAUAGUCGGACCUCUCCUUAAUGGGAGCUAGCGGAUGAAGUGAUGCAACACUGGAGCCGCUGGGAACUAAUUUGUAUGCGAAAGUAUAUUGAUUAGUUUUGGAGUACUCGUGGUCG
Procedure, shortened: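 Colonies from six replicate transformations of E. coli BL21(DE3) were pooled and amplicon-sequenced on an Illumina HiSeq 2500. The library placed an intron with all eight P1ex-region nucleotides randomised inside the knt kanamycin-resistance gene on pET-22b(+), and cells grew overnight at 37°C or 30°C on LB agar with or without 25 μg/mL kanamycin (plus 100 μg/mL carbenicillin, 50 μM IPTG, 0.2% rhamnose). Fitness is the DiMSum error-weighted combination of wild-type-normalised replicate fold changes, kanamycin versus none.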

| Sequence | self-splicing fitness (ln) (30 °C) | self-splicing fitness (ln) (37 °C) |
| --- | --- | --- |
| AAAUAGCAAUAUUACGGUAG | -3.63 ± 0.22 | -2.62 ± 0.23 |
| AAAUAGCAAUAUUACGGUUA | -0.483 ± 0.077 | -0.546 ± 0.08 |
| AAAUAGCAAUAUUACGUAGA | -3.32 ± 0.17 | -0.484 ± 0.1 |
| AAAUAGCAAUAUUACGUCUG | -1.3 ± 0.068 | -0.843 ± 0.088 |
| AAAUAGCAAUAUUACGUGAG | -1.19 ± 0.078 | -0.609 ± 0.11 |
| AACAAGCAAUAUUACGACUG | -0.961 ± 0.099 | -0.786 ± 0.11 |
| AACAAGCAAUAUUACGACUU | -0.0432 ± 0.046 | 0.207 ± 0.064 |
| AACAAGCAAUAUUACGAGCA | -1.22 ± 0.099 | -0.153 ± 0.11 |
| AACAAGCAAUAUUACGAGGU | -4.04 ± 0.21 | -3.54 ± 0.17 |
| AACAAGCAAUAUUACGAGUA | -1.5 ± 0.078 | -0.465 ± 0.08 |
| AACAAGCAAUAUUACGCAAA | -2.08 ± 0.17 | 0.267 ± 0.13 |
| AACAAGCAAUAUUACGCAGA | -2.2 ± 0.11 | -0.924 ± 0.095 |
| AACAAGCAAUAUUACGCAUA | -1.8 ± 0.12 | -1.04 ± 0.13 |
| AACAAGCAAUAUUACGCCGC | -3.05 ± 0.31 | -1.94 ± 0.36 |
| AACAAGCAAUAUUACGCCUC | -1.75 ± 0.14 | -0.437 ± 0.15 |
| AACAAGCAAUAUUACGCGCG | -0.623 ± 0.093 | 0.651 ± 0.11 |
| AACAAGCAAUAUUACGCUAA | -2.12 ± 0.11 | -0.523 ± 0.091 |
| AACAAGCAAUAUUACGGCAG | -1.53 ± 0.11 | -1.4 ± 0.13 |
| AACAAGCAAUAUUACGGCAU | -0.11 ± 0.057 | -0.0731 ± 0.073 |
| AACAAGCAAUAUUACGGGAC | -2.86 ± 0.12 | -1.17 ± 0.12 |
| AACAAGCAAUAUUACGGGGC |  | -2.18 ± 0.23 |
| AACAAGCAAUAUUACGUAAA | -2.36 ± 0.09 | -1.17 ± 0.098 |
| AACAAGCAAUAUUACGUAGC | -3.1 ± 0.09 | -2.07 ± 0.1 |
| AACAAGCAAUAUUACGUCCC | -0.608 ± 0.12 | -0.718 ± 0.17 |
| AACAAGCAAUAUUACGUUCG | -2.86 ± 0.1 | -1.76 ± 0.13 |

| Sequence | self-splicing fitness (ln) (30 °C) | self-splicing fitness (ln) (37 °C) |
| --- | --- | --- |
| AACAAGCAAUAUUACGUUUC | -4.46 ± 0.22 | -2.95 ± 0.15 |
| AACCAGCAAUAUUACGAACA | -0.809 ± 0.07 | 0.214 ± 0.07 |
| AACCAGCAAUAUUACGAAGG | -3.19 ± 0.23 | -1.8 ± 0.22 |
| AACCAGCAAUAUUACGACCG | -0.744 ± 0.087 | -0.237 ± 0.14 |
| AACCAGCAAUAUUACGAGCG | -1.14 ± 0.072 | -0.281 ± 0.084 |
| AACCAGCAAUAUUACGCAAC | -2.78 ± 0.13 | -0.698 ± 0.11 |
| AACCAGCAAUAUUACGCAAU | -1.86 ± 0.081 | -0.25 ± 0.098 |
| AACCAGCAAUAUUACGCAUU | -1.58 ± 0.068 | 0.096 ± 0.086 |
| AACCAGCAAUAUUACGCCAC | -3.16 ± 0.19 | -2.97 ± 0.4 |
| AACCAGCAAUAUUACGCGAC | -2.27 ± 0.14 | -1.2 ± 0.12 |
| AACCAGCAAUAUUACGCUAG | -2.62 ± 0.082 | -0.715 ± 0.08 |
| AACCAGCAAUAUUACGCUCU | -0.0812 ± 0.054 | 0.0106 ± 0.07 |
| AACCAGCAAUAUUACGCUGG | -2.8 ± 0.14 | -2.25 ± 0.19 |
| AACCAGCAAUAUUACGCUUC | -4.25 ± 0.16 | -2.3 ± 0.11 |
| AACCAGCAAUAUUACGGAGG | -1.36 ± 0.076 | -0.444 ± 0.12 |
| AACCAGCAAUAUUACGGAUU | -2.07 ± 0.071 | -1.08 ± 0.087 |
| AACCAGCAAUAUUACGGCUG | -3.63 ± 0.14 | -3.05 ± 0.16 |
| AACCAGCAAUAUUACGGGCA | -0.402 ± 0.041 | 0.117 ± 0.053 |
| AACCAGCAAUAUUACGGUAG | -1.99 ± 0.058 | -1.02 ± 0.066 |
| AACCAGCAAUAUUACGUACC | -0.685 ± 0.08 | 0.0338 ± 0.11 |
| AACCAGCAAUAUUACGUAGG | -2.67 ± 0.089 | -1.79 ± 0.099 |
| AACCAGCAAUAUUACGUAUA | -1.4 ± 0.072 | -0.853 ± 0.088 |
| AACCAGCAAUAUUACGUCCC | -0.726 ± 0.13 | 0.292 ± 0.18 |
| AACCAGCAAUAUUACGUCUU | 0.0745 ± 0.044 | 0.393 ± 0.063 |
| AACCAGCAAUAUUACGUGGA | -2.33 ± 0.093 | -1.13 ± 0.08 |

| Sequence | self-splicing fitness (ln) (30 °C) | self-splicing fitness (ln) (37 °C) |
| --- | --- | --- |
| AACCAGCAAUAUUACGUGGC | -3.06 ± 0.12 | -2.99 ± 0.17 |
| AACCAGCAAUAUUACGUGUA | -0.891 ± 0.041 | -0.409 ± 0.049 |
| AACCAGCAAUAUUACGUUCC | -2.94 ± 0.17 | -0.871 ± 0.14 |
| AACGAGCAAUAUUACGAAAG | -2.83 ± 0.48 | -1.43 ± 0.32 |
| AACGAGCAAUAUUACGAAGG |  | -2.3 ± 0.2 |
| AACGAGCAAUAUUACGAAUC | -3.96 ± 0.26 | -2.5 ± 0.41 |
| AACGAGCAAUAUUACGACAC |  | -1.46 ± 0.32 |
| AACGAGCAAUAUUACGAGUA | -3.14 ± 0.17 | -2.12 ± 0.14 |
| AACGAGCAAUAUUACGCACG | -2.8 ± 0.38 | -0.837 ± 0.25 |
| AACGAGCAAUAUUACGCAUA | -2.86 ± 0.38 | -1.26 ± 0.35 |
| AACGAGCAAUAUUACGCAUU | -1.24 ± 0.12 | -2.9 ± 0.24 |
| AACGAGCAAUAUUACGCGCA | -1.28 ± 0.094 | -2.1 ± 0.12 |
| AACGAGCAAUAUUACGCGUA | -2.19 ± 0.19 | -1.72 ± 0.18 |
| AACGAGCAAUAUUACGCUGU | -2.67 ± 0.45 | -2.99 ± 0.4 |
| AACGAGCAAUAUUACGGAGU |  | -1.74 ± 0.14 |
| AACGAGCAAUAUUACGGCCU | -1.16 ± 0.2 | -0.95 ± 0.2 |
| AACGAGCAAUAUUACGGCUA | -1.23 ± 0.15 | -0.829 ± 0.18 |
| AACGAGCAAUAUUACGGUAC |  | -1.34 ± 0.22 |
| AACGAGCAAUAUUACGGUCC |  | -1.13 ± 0.31 |
| AACGAGCAAUAUUACGUAAC | -2.83 ± 0.2 | -1.83 ± 0.44 |
| AACGAGCAAUAUUACGUACA | -3.11 ± 0.17 | -2.19 ± 0.14 |
| AACGAGCAAUAUUACGUAUG | -4.21 ± 0.23 | -2.59 ± 0.17 |
| AACGAGCAAUAUUACGUGAC |  | -2.76 ± 0.23 |
| AACGAGCAAUAUUACGUGCC | -3.37 ± 0.27 | -1.85 ± 0.3 |
| AACUAGCAAUAUUACGAACU | -0.149 ± 0.088 | -0.455 ± 0.098 |

| Sequence | self-splicing fitness (ln) (30 °C) | self-splicing fitness (ln) (37 °C) |
| --- | --- | --- |
| AACUAGCAAUAUUACGACUA | -0.192 ± 0.2 | -1.24 ± 0.15 |
| AACUAGCAAUAUUACGAGGA | -1.71 ± 0.1 | -1.89 ± 0.11 |
| AACUAGCAAUAUUACGAUCU | -0.146 ± 0.082 | 0.426 ± 0.098 |
| AACUAGCAAUAUUACGAUGG | -2.49 ± 0.17 | -0.739 ± 0.14 |
| AACUAGCAAUAUUACGCAAC | -3.49 ± 0.21 | -2.08 ± 0.18 |
| AACUAGCAAUAUUACGCAGU | -4.36 ± 0.41 | -1.96 ± 0.21 |
| AACUAGCAAUAUUACGCGAA | -2.81 ± 0.16 | -1.05 ± 0.12 |
| AACUAGCAAUAUUACGCGUA | -1.19 ± 0.09 | -0.289 ± 0.083 |
| AACUAGCAAUAUUACGCUAU | -2.88 ± 0.14 | -1.84 ± 0.13 |
| AACUAGCAAUAUUACGCUCC | -1.39 ± 0.15 | -0.732 ± 0.19 |
| AACUAGCAAUAUUACGCUUG | -2.18 ± 0.11 | -1.16 ± 0.12 |
| AACUAGCAAUAUUACGGAGC | -1.86 ± 0.15 | -0.604 ± 0.15 |
| AACUAGCAAUAUUACGGGAU | -1.53 ± 0.079 | -0.855 ± 0.081 |
| AACUAGCAAUAUUACGGGGC | -3.61 ± 0.23 | -3.1 ± 0.35 |
| AACUAGCAAUAUUACGUAAA | -1.87 ± 0.11 | -1.01 ± 0.11 |
| AACUAGCAAUAUUACGUACA | -1.19 ± 0.099 | -0.373 ± 0.13 |
| AACUAGCAAUAUUACGUCUC | -3.37 ± 0.16 | -2.54 ± 0.15 |
| AACUAGCAAUAUUACGUGAC | -2.92 ± 0.12 | -1.38 ± 0.12 |
| AACUAGCAAUAUUACGUUGG | -3.74 ± 0.22 | -3.5 ± 0.22 |
| AAGAAGCAAUAUUACGAAUC | -2.91 ± 0.15 | -2.64 ± 0.26 |
| AAGAAGCAAUAUUACGAAUG | -2.19 ± 0.13 | -1.66 ± 0.14 |
| AAGAAGCAAUAUUACGACCC | -1.01 ± 0.16 | -0.395 ± 0.17 |
